The target of test [1] is T1, ΔF508 CFTR (Homo sapiens, UniProt P13569, DEL508-508). The test is described as follows: CFTR immunoblot (mature C / immature B band) in CFBE41o− cells stably expressing ΔF508 CFTR. The class given is cell-based. How it is done: Cells. Cell Lines and Cell Culture—Human bronchial epithelial (HBE) cells, homozygous for the […] mutation and its isogenic wild-type were obtained from lung transplants (CF patients) or lung resections (non-CF patients) (kindly provided by L J Galietta within the Italian Cystic Fibrosis Foundation). Cells were maintained at 37° C. in a humidified incubator in an atmosphere containing 5% CO2, and the experiments were done 5 days after plating (21, 22). Stable lentiviral-based transduction of the parental CFBE41o− cells (ΔF508/ΔF508), originally immortalized and characterized by Dr. D. Gruenert and co-workers (32) with either WT-CFTR or ΔF508-CFTR, was performed by Tranzyme, Inc. (Birmingham, AL). The transduced CFBE41o− cells were maintained in minimum Eagle's medium supplemented with 50 units/ml penicillin, 50 μg/ml streptomycin, 2 mM L-glutamine, 10% fetal bovine serum, and 1 μg/ml blasticidine (WT-CFTR) or 2 μg/ml puromycin (ΔF508-CFTR) in a 5% CO2, 95% air incubator at 37° C. The parental CFBE41o− cells were maintained under the same culture conditions but without blasticidine or puromycin. To establish polarized monolayers, CFBE41o− cells were seeded on 24-mm-diameter Transwell permeable supports ([…] pore size; Corning Corp., Corning, NY) at 2×10^6 and grown in air-liquid interface culture at 37° C. for 6-9 days and then at 27° C. for 36 hours. Cells were incubated with Tα1 100 ng/ml (CRIBI Biotechnology, Padova, see below), 3 μM VX-809 (Lumacaftor, Aurogene Rome, Italy), 1 μM VX-770 (Ivacaftor, Aurogene) alone or in combination for 24 hours before the assessment of CFTR protein expression and function. DMSO vehicle alone (0.1%, v/v) for 24 h was used as a control.
T1 sequence (P13569 with tags, fused parts or gaps DEL508-508): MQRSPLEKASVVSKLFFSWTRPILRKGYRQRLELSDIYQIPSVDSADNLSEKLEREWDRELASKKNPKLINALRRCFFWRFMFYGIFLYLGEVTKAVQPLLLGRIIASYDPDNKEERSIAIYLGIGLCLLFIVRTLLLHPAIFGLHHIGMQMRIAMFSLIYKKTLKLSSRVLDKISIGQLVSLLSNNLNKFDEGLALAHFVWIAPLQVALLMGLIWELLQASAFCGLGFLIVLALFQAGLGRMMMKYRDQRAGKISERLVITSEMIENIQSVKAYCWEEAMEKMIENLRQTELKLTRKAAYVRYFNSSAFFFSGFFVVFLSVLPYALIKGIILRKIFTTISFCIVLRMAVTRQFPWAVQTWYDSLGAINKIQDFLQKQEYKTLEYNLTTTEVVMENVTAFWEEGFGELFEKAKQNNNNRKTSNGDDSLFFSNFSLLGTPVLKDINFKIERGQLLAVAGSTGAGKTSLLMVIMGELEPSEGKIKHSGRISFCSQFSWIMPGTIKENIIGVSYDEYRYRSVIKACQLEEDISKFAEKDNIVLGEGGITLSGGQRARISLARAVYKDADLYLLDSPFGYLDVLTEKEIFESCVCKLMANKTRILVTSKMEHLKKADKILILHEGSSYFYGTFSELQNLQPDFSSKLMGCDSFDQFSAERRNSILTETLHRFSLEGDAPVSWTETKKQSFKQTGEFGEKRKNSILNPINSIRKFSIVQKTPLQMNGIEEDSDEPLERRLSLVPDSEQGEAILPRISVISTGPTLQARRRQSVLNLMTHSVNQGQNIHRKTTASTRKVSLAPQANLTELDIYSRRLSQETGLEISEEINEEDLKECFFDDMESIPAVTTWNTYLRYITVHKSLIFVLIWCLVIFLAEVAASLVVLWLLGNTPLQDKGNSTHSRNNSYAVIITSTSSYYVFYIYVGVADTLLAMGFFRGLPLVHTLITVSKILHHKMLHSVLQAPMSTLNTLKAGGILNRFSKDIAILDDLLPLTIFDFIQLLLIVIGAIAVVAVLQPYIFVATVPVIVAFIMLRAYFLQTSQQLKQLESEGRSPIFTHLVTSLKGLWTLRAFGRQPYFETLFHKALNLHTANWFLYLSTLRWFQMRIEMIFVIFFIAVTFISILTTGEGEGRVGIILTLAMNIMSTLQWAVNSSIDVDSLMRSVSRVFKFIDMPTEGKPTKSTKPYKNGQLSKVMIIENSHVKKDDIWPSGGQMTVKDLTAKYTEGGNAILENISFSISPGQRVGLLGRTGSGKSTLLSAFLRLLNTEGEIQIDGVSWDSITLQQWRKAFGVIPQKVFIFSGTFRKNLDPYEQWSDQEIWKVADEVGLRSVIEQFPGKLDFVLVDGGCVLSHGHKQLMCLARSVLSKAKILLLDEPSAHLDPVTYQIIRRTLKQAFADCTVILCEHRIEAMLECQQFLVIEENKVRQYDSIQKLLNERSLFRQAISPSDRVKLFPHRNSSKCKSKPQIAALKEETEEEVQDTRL
CFTR Immunoblot Analysis. Immunoblot techniques using the anti-CFTR antibody (clone CF3, Abcam) were used to measure CFTR maturation in FRT, HEK-293, or HBE cells expressing CFTR or F508del-CFTR (34). After incubation, cells were harvested in ice-cold D-PBS solution (without calcium and magnesium) and pelleted at 1,000×g at 4° C. Cell pellets were lysed in 1% Nonidet P-40, 0.5% sodium deoxycholate, 200 mM NaCl, 10 mM Tris, pH 7.8, and 1 mM EDTA plus protease inhibitor mixture (1:250; Roche) for 30 min on ice. Lysates were spun for 10 min at 10,000×g at 4° C. to pellet nuclei and insoluble material. […] LiteAblotPlus chemiluminescence substrate (Euroclone S.p.A.), using ChemiDoc™ XRS+ Imagig system (Bio-Rad Laboratories) and blot quantification was obtained by densitometry image analysis using Image Lab 3.1.1 software (Bio-Rad).
The SV40 transformed CF airway epithelial cell line (CFBE41o−), homozygous for the ΔF508-CFTR mutation, was used (32). […] CFTR bands were quantified by densitometry and expressed as the C/B ratio. […]
(In general: A western blot detects proteins with antibodies after separation by electrophoresis.)

The target of test [2] is T1, ΔF508 CFTR. The test is described as follows: Chloride permeability by SPQ fluorescence assay upon forskolin stimulation, CFBE41o− cells. Type of test: cell-based. The protocol: Cells. Cell Lines and Cell Culture—Human bronchial epithelial (HBE) cells, homozygous for the […] mutation and its isogenic wild-type were obtained from lung transplants (CF patients) or lung resections (non-CF patients) (kindly provided by L J Galietta within the Italian Cystic Fibrosis Foundation). Cells were maintained at 37° C. in a humidified incubator in an atmosphere containing 5% CO2, and the experiments were done 5 days after plating (21, 22). Stable lentiviral-based transduction of the parental CFBE41o− cells (ΔF508/ΔF508), originally immortalized and characterized by Dr. D. Gruenert and co-workers (32) with either WT-CFTR or ΔF508-CFTR, was performed by Tranzyme, Inc. (Birmingham, AL). […]
The activity of Tα1, either alone or in combination with ivacaftor, has been comparatively assessed with that of lumacaftor on CFBE41o− cells expressing ΔF508 CFTR and on HBE cells from CF patients. To this purpose, cells were treated with Tα1 (100 ng/ml), VX-770 (1 μM) or VX-809 (3 μM) alone or in combination for 24 hours and assessed for CFTR protein expression and function. […] In terms of ion channel activity, Tα1, either alone or in combination with ivacaftor, increased the chloride permeability of ΔF508 CFTR cells between 60 to 70% relative to control (considering WT control as 100% reference value)(B, assessed by a fluorescence assay upon stimulation with fosforkolin, Fsk). […]

Take “Ac-Ser-Asp-Ala-Ala-Val-Asp-Thr-Ser-Ser-Glu-Ile-Thr-Thr-Lys-Asp-Leu-Lys-Glu-Lys-Lys-Glu-Val-Val-Glu-Glu-Ala-Glu-Asn-O (Ac-SDAAVDTSSEITTKDLKEKKEVVEEAEN-OH; not fully specified; printed as Ac-Ser-Asp-Ala-Ala-Val-Asp-Thr-Ser-Ser-Glu-Ile-Thr-Thr-Lys-Asp-Leu-Lys-Glu-Lys-Lys-Glu-Val-Val-Glu-Glu-Ala-Glu-Asn-O; listed as Homo sapiens) [Tα1, naturally occurring polypeptide of 28 amino acid; supplied as purified sterile, lyophilized, acetylated polypeptide]”: the “cellular expression of ΔF508 mature CFTR (band C, C/B ratio)” value with ΔF508 CFTR [1] (100 ng/ml Tα1, from 30 mins until 24 hours, CFBE41o− cells expressing ΔF508 CFTR) is “persistently increased”. Also, the “expression of the mature form (C) relative to the immature form (B) of CFTR” value with ΔF508 CFTR [1] (ΔF508-transfected cells, 24 hours, Tα1 100 ng/ml, VX-770 1 μM, VX-809 3 μM alone or in combination) is reported as “increased”. In addition, in the test with ΔF508 CFTR [2] (100 ng/ml Tα1 for 24 hours, CFBE41o− cells, forskolin stimulation), the “chloride permeability of ΔF508 CFTR cells relative to control (WT control as 100%)” value is “approximately 70%”. In addition, in the test with ΔF508 CFTR [2] (CFBE41o− cells expressing ΔF508 CFTR, 24 hours), the “ion channel activity compared to lumacaftor” value is listed as “lower”.

(Values after patent publication US12083165B2, “Thymosin alpha 1 for use in treatment of cystic fibrosis” (SciClone Pharmaceuticals International (SG) PTE. LTD., priority 2015, dated 2024).)
